Experimental data from article PMC3050627.

Biological target: His-MAFB (UniProt Q9Y5Q3 1-323)
Experiment: EMSA

Chain of His-MAFB (Q9Y5Q3 whole entry): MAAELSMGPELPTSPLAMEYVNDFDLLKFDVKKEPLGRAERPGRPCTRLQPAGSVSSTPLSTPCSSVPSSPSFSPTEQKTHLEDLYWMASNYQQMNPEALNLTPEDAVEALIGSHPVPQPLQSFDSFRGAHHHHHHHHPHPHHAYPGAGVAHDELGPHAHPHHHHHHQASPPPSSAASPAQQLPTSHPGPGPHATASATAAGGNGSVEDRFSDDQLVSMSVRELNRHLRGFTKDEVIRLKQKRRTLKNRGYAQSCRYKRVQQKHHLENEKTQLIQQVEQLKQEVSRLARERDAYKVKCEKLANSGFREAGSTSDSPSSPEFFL

B1: MARE (dsDNA)
DNA 1: CATTTCTGCTGACTCAGCAACTTTA
DNA 2: TAAAGTTGCTGAGTCAGCAGAAATG
binding result: binds

B2: P31 (PRDIII-PRDI) (dsDNA)
DNA 1: GAAAACTGAAAGGGAGAAGTGAAAGTG
DNA 2: CACTTTCACTTCTCCCTTTCAGTTTTC
binding result: no binding
